Test results published in the supplement of paper PMC10126150.
± gives the standard deviation of the averaged measurements.

test system: ATP; assay: switch fluorescence ratio, 500 uM ATP over buffer (Cy3 cluster intensity, sum of 5 cycles each) (fold (ratio)); higher = stronger signal-on switching upon ATP binding; sequences stand for … in TCGTCGGCAGCGTCAGATGTGTATAAGAGACAGTTTTTTTTTTTTTTTTTTTTTTTTT…TC; settings: aptamer strand: ATP DNA aptamer (quencher-CACCTGGGGGAGTATTGCGGAGGAAGG + anchor), 100 nM annealed; ATP concentration: 500 uM
How it was run: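 Per cluster, summed Cy3 intensity from the target cycles was divided by that from the buffer cycles to give the fluorescence ratio, then averaged per switch-domain sequence. Clusters outside 100-1000 RFU were excluded. The Cy3-labelled switching-strand clusters, on a modified Illumina MiSeq flow-cell, were annealed to 100 nM quencher-labelled ATP aptamer and imaged in selection buffer, then after 15 min with 500 uM ATP at 22 °C, for five cycles with NaOH stripping and re-annealing between them.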
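Further: ATP exposure 15 min at 22 °C before imaging.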

Sequence | switch fluorescence ratio
GTTTTGGGGG | 1.02 ± 0.025
GTTTTGTAAA | 0.975 ± 0.026
GTTTTGTATG | 1.004 ± 0.0044
GTTTTTAACG | 1.02 ± 0.05
GTTTTTACTG | 1.05 ± 0.081
GTTTTTAGCA | 0.9719 ± 0.005
GTTTTTATAG | 0.992 ± 0.014
GTTTTTCAAG | 0.975 ± 0.01
GTTTTTCGGG | 0.981 ± 0.034
GTTTTTCGT | 1 ± 0.062
GTTTTTCTGT | 1.01 ± 0.014
GTTTTTGACA | 0.989 ± 0.015
GTTTTTGCTT | 1.01 ± 0.032
GTTTTTGGAA | 1.05 ± 0.013
GTTTTTGGAC | 0.982 ± 0.029
GTTTTTGGAT | 0.991 ± 0.0049
GTTTTTGGGG | 0.987 ± 0.055
GTTTTTTAAA | 0.987 ± 0.04
GTTTTTTTGG | 1 ± 0.018
TAAAAAAACG | 1.1 ± 0.021
TAAAAAAGCC | 1.03 ± 0.091
TAAAAAATGT | 1 ± 0.019
TAAAAAGAGC | 0.984 ± 0.022
TAAAAAGGTG | 1.12 ± 0.11
TAAAAATAGC | 1.024 ± 0.0095

Sequence | switch fluorescence ratio
TAAAAATATG | 0.9907 ± 0.0013
TAAAAATCAT | 1.01 ± 0.034
TAAAAATCGA | 0.993 ± 0.0013
TAAAAATGAC | 1.07 ± 0.1
TAAAAATGCG | 0.951 ± 0.065
TAAAAATTTA | 1.01 ± 0.048
TAAAACGCCC | 1.15 ± 0.04
TAAAAGACTG | 0.992 ± 0.094
TAAAAGGGTC | 0.942 ± 0.085
TAAAATAGAG | 1 ± 0.035
TAAAATCCTG | 1.05 ± 0.039
TAAAATGGAC | 1.03 ± 0.028
TAAAATGGCG | 1 ± 0.055
TAAAATGGGA | 0.981 ± 0.027
TAAAATGTTA | 0.985 ± 0.0063
TAAAATGTTT | 0.998 ± 0.013
TAAAATTCTT | 1.01 ± 0.025
TAAACAATTT | 0.978 ± 0.013
TAAACCCTGC | 1.07 ± 0.032
TAAACCGATG | 1.21 ± 0.048
TAAACCTGTG | 1.05 ± 0.088
TAAACGCCTC | 1.08 ± 0.058
TAAACGGGAT | 0.999 ± 0.019
TAAACGGGCG | 0.983 ± 0.019
TAAACGGGTA | 1.04 ± 0.02

Sequence | switch fluorescence ratio
TAAAGAACCA | 1.016 ± 0.0053
TAAAGAAGGT | 1.01 ± 0.033
TAAAGACCGA | 1.08 ± 0.048
TAAAGAGAGA | 1.03 ± 0.012
TAAAGAGAGC | 1.01 ± 0.097
TAAAGAGTCG | 1.02 ± 0.063
TAAAGATATC | 0.972 ± 0.028
TAAAGCATTA | 1.04 ± 0.025
TAAAGCGTAG | 0.998 ± 0.027
TAAAGGAAAG | 1.02 ± 0.03
TAAAGGAAGG | 0.9801 ± 0.0066
TAAAGGATAA | 0.9849 ± 0.0093
TAAAGGGGGT | 1.01 ± 0.047
TAAAGGTATC | 0.9977 ± 0.0048
TAAAGGTCAG | 0.996 ± 0.018
TAAAGGTGTA | 1 ± 0.026
TAAAGTACGT | 1.11 ± 0.021
TAAAGTAGAT | 0.988 ± 0.027
TAAAGTATAT | 0.9976 ± 0.004
TAAAGTCCGA | 1.014 ± 0.0028
TAAAGTGTTG | 1.02 ± 0.024
TAAATAGAAT | 1.11 ± 0.1
TAAATATGGG | 0.999 ± 0.034
TAAATCAGAG | 0.99 ± 0.03
TAAATCGTAG | 0.991 ± 0.0099

Sequence | switch fluorescence ratio
TAAATCTCTG | 1.004 ± 0.0055
TAAATGATTT | 1.01 ± 0.014
TAAATGGTCC | 1.073 ± 0.0063
TAAATGTCAT | 0.998 ± 0.027
TAAATGTGGA | 0.972 ± 0.03
TAAATTAGCT | 1.02 ± 0.037
TAAATTAGGA | 0.988 ± 0.074
TAAATTTATA | 0.992 ± 0.021
TAAATTTATT | 1.01 ± 0.017
TAAATTTGAC | 0.996 ± 0.036
TAACAAGGCA | 0.985 ± 0.013
TAACACAGTC | 1.04 ± 0.054
TAACACTAGC | 1.011 ± 0.0037
TAACAGGTTG | 1.02 ± 0.019
TAACCAATTT | 1.01 ± 0.018
TAACCCGGTT | 0.999 ± 0.042
TAACCGATAT | 0.99434 ± 0.00034
TAACCTCGCG | 1.04 ± 0.02
TAACGAAAAA | 1.03 ± 0.062
TAACGGACGT | 1.01 ± 0.054
TAACGGACTA | 1.29 ± 0.023
TAACGGCATC | 1.08 ± 0.036
TAACGGCGCG | 1.028 ± 0.0024
TAACGGGCTG | 1.07 ± 0.054
TAACGGGGTT | 0.9826 ± 0.00097

Sequence | switch fluorescence ratio
TAACGGTATA | 1.11 ± 0.058
TAACGTGGGA | 0.996 ± 0.058
TAACGTGGTG | 1.05 ± 0.019
TAACTATTT | 1 ± 0.046
TAACTCTGAG | 0.979 ± 0.015
TAACTGCAGA | 1.01 ± 0.038
TAACTTCGTG | 1.01 ± 0.031
TAAGAACATT | 1.03 ± 0.1
TAAGAAGATT | 0.986 ± 0.024
TAAGAAGTCC | 0.977 ± 0.045
TAAGAATTCC | 1.08 ± 0.047
TAAGACGGGG | 1.01 ± 0.034
TAAGAGCGTA | 1.0055 ± 0.00049
TAAGAGGAGA | 0.987 ± 0.017
TAAGAGGGAG | 0.966 ± 0.036
TAAGAGGGTG | 1.11 ± 0.016
TAAGAGTATC | 1.01 ± 0.019
TAAGATCGGC | 0.974 ± 0.017
TAAGATCTGA | 1.02 ± 0.051
TAAGATGGTG | 0.981 ± 0.011
TAAGATGTAT | 0.968 ± 0.031
TAAGCCTTG | 0.996 ± 0.006
TAAGCTGGCG | 1.06 ± 0.14
TAAGCTGTTA | 0.981 ± 0.038
TAAGCTTAGT | 1.001 ± 0.0065

Sequence | switch fluorescence ratio
TAAGGACGAG | 1.02 ± 0.013
TAAGGAGGAT | 1 ± 0.017
TAAGGAGTGG | 1.03 ± 0.073
TAAGGATGGT | 0.997 ± 0.01
TAAGGCACGC | 1.01 ± 0.027
TAAGGCTACA | 1.01 ± 0.016
TAAGGCTGAC | 1.15 ± 0.023
TAAGGCTGTG | 1 ± 0.017
TAAGGGAGGG | 1.05 ± 0.029
TAAGGGCGGC | 0.995 ± 0.043
TAAGGGCTGC | 1.036 ± 0.0084
TAAGGGGAGT | 1.01 ± 0.038
TAAGGGGCCA | 1.024 ± 0.0088
TAAGGGGCGT | 1.03 ± 0.035
TAAGGGGGCG | 1 ± 0.023
TAAGGGGGGA | 1.03 ± 0.08
TAAGGGGGGG | 1 ± 0.029
TAAGGGGTAC | 1 ± 0.013
TAAGGTACGA | 1.052 ± 0.0032
TAAGGTACTG | 0.984 ± 0.086
TAAGGTCGGC | 0.986 ± 0.028
TAAGGTTCTC | 0.96 ± 0.015
TAAGGTTGGT | 0.987 ± 0.028
TAAGTAAGGG | 1 ± 0.025
TAAGTAATTC | 1.08 ± 0.064

Sequence | switch fluorescence ratio
TAAGTAGAG | 0.9824 ± 0.0097
TAAGTAGGGG | 0.981 ± 0.023
TAAGTAGGGT | 1.01 ± 0.023
TAAGTATGCC | 0.963 ± 0.06
TAAGTATGGT | 1.03 ± 0.046
TAAGTCAGCT | 1 ± 0.032
TAAGTCCCGG | 0.984 ± 0.05
TAAGTCGGGA | 0.952 ± 0.025
TAAGTGAAAG | 0.986 ± 0.022
TAAGTGACAA | 1.05 ± 0.019
TAAGTGACAG | 1.01 ± 0.063
TAAGTGCAT | 1.0026 ± 4.4e-05
TAAGTGGTA | 0.993 ± 0.042
TAAGTGGTTT | 1 ± 0.019
TAAGTGTAAA | 0.986 ± 0.013
TAAGTTAGTG | 1 ± 0.016
TAAGTTGACT | 1.06 ± 0.078
TAAGTTGGGA | 0.98 ± 0.031
TAAGTTTTCC | 1.03 ± 0.032
TAATAAGCGG | 0.976 ± 0.035
TAATAAGGGG | 1.02 ± 0.028
TAATAAGTA | 0.97 ± 0.012
TAATAATGAG | 0.981 ± 0.011
TAATAATTGG | 1.04 ± 0.057
TAATACGGCG | 1.009 ± 0.01

Sequence | switch fluorescence ratio
TAATAGATCC | 1.01 ± 0.067
TAATAGTGTT | 1.024 ± 0.0092
TAATAGTTCT | 1.01 ± 0.026
TAATATAGTT | 1.01 ± 0.027
TAATATGGGC | 1.02 ± 0.034
TAATATTAAC | 1.02 ± 0.03
TAATATTTTA | 0.987 ± 0.014
TAATATTTTT | 1 ± 0.017
TAATCAATGT | 0.994 ± 0.011
TAATCACGTC | 1.04 ± 0.048
TAATCCGCGG | 1.14 ± 0.041
TAATCGACTT | 1.02 ± 0.014
TAATCGGGTT | 0.996 ± 0.017
TAATCGTGGA | 1.03 ± 0.022
TAATCGTGTG | 0.985 ± 0.067
TAATCGTTTG | 0.962 ± 0.01
TAATGACCAA | 1.019 ± 0.0071
TAATGACTTG | 0.953 ± 0.031
TAATGAGCTA | 0.987 ± 0.042
TAATGAGTCA | 1 ± 0.081
TAATGAGTTA | 0.9658 ± 0.0012
TAATGCATTT | 1.01 ± 0.017
TAATGCGTTT | 0.98 ± 0.0039
TAATGCTTAT | 1.06 ± 0.12
TAATGCTTTT | 0.978 ± 0.03
